Measured values taken from patent publication US20180155451A1 (published 2018).
Residue numbers refer to the chain shown, from its start. Names may count otherwise. Read-outs that look alike come from different tables or passages of the source. Blank lines part the entries; values can stand above or below the binder they belong to.

Legend:
[1] = target: T1, FcgRIIaH (human, UniProt P12318 34-217); test: SPR (Biacore); KD of H240-Kn120/H240-Hl068/L73-k0 divided by KD of the sample
T1 construct: extracellular domain; H131 allotype; also called FcγRIIa H; FcgRIIa type H; not shown: C-terminal His tag
T1 sequence (looked up): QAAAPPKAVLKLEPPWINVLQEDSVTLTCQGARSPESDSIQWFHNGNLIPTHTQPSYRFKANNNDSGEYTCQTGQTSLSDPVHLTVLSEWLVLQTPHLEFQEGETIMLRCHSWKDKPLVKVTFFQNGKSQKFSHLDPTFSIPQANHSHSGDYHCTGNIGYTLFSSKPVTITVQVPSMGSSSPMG
Experimental: (§1) The variants described above were assessed for their binding to FcgR according to the method described in Reference Example 8.
(§2) Analysis of interaction between obj ective antibody and the FcγR was carried out using Biacore T100 (GE Healthcare), Biacore T200, Biacore A100, and Biacore 4000. HBS-EP+ (GE Healthcare) was used as the running buffer, and the measurement temperature was set to 25° C. Chips produced by immobilizing the antigen peptide by the amine coupling method to a Series S sensor Chip CM5 (GE Healthcare), chips produced by allowing preliminarily biotinylated antigen peptides to interact with and immobilize onto a Series S Sensor Chip SA (certified) (GE Healthcare), chips produced by immobilizing Protein L (ACTIGEN, BioVision) to Series S Sencor Chip CM5 (GE Healthcare), or chips produced by immobilizing Protein A/G (Thermo Scientific) to Series S Sencor Chip CM5 (GE Healthcare) were used. Antibodies of interest were captured onto these chips, and allowed to interact to each FcγR diluted with running buffer. To regenerate and repeatedly use the chip, the antibodies captured onto the chip were washed off by reacting 10 mM glycine-HCl, pH 1.5.

[2] = target: T2, FcgRIIIaF (human, UniProt P08637 17-208); test: as above
T2 construct: extracellular domain; F158 allotype; also called FcγRIIIa F; not shown: C-terminal His tag
T2 sequence (P08637 17-208): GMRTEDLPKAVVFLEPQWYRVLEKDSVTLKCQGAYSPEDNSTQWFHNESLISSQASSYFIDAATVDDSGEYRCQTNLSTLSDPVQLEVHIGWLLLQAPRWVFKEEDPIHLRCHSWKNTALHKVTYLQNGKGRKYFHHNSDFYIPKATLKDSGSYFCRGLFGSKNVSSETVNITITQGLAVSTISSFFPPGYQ
Experimental: as §1, §2

[3] = target: T3, FcgRIIb (human, UniProt P31994 43-217); test: as above
T3 construct: extracellular domain; also called FcγRIIb; CD32B; not shown: C-terminal His tag
T3 sequence (looked up): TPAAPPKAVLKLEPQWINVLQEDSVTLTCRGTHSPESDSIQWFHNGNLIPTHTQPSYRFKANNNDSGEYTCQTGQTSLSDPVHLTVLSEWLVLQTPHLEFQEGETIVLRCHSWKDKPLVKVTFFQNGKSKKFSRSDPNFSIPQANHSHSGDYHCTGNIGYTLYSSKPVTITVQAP
Experimental: as §1, §2

[4] = target: T4, FcgRIIaR (human, UniProt P12318 34-217); test: as above
T4 construct: extracellular domain; R131 allotype; also called FcγRIIa R; FcgRIIa type R; not shown: C-terminal His tag
T4 sequence (looked up): T1 sequence (looked up) with H134R
Experimental: as §1, §2

[5] = target: T5, FcgRIIIaV (human, UniProt P08637 17-208); test: as above
T5 construct: extracellular domain; V158 allotype; also called FcγRIIIa V; not shown: C-terminal His tag
T5 sequence (P08637 17-208 F176V limits assumed): as the sequence (P08637 17-208) above, with F160V counted along it
Experimental: as §1, §2

[6] = target: T1, FcgRIIaH; test: as above; remark: listed apart in the source
Experimental: (§3) The variants described above were assessed for their binding to FcγR according to the method described in Reference Example 8.
as §2

[7] = target: T2, FcgRIIIaF; test: as above; remark: listed apart in the source
Experimental: as §3, §2

[8] = target: T3, FcgRIIb; test: as above; remark: listed apart in the source
Experimental: as §3, §2

[9] = target: T4, FcgRIIaR; test: as above; remark: listed apart in the source
Experimental: as §3, §2

[10] = target: T5, FcgRIIIaV; test: as above; remark: listed apart in the source
Experimental: as §3, §2

[11] = target: T1, FcgRIIaH; test: SPR (Biacore), antibody captured on chip, FcgR as analyte
Experimental: as §3, §2

[12] = target: T2, FcgRIIIaF; test: as above
Experimental: as §3, §2

[13] = target: T3, FcgRIIb; test: as above
Experimental: as §3, §2

[14] = target: T6, FcgRIa (human, UniProt P12314 16-292); test: as above
T6 construct: extracellular domain; also called FcγRIa; FcγRI; not shown: C-terminal His tag
T6 sequence (P12314 16-292): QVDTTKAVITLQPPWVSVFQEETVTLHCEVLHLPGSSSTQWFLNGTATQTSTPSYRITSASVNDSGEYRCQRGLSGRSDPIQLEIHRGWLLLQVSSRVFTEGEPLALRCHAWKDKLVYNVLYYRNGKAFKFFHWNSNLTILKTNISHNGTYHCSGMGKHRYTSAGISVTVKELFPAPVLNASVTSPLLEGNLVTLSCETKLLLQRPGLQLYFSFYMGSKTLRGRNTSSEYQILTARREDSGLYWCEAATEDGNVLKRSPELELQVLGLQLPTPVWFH
Experimental: as §3, §2

[15] = target: T4, FcgRIIaR; test: as above
Experimental: as §3, §2

[16] = target: T5, FcgRIIIaV; test: as above
Experimental: as §3, §2

[17] = target: T1, FcgRIIaH; test: as above; remark: listed apart in the source
Experimental: as §1, §2

[18] = target: T2, FcgRIIIaF; test: as above; remark: listed apart in the source
Experimental: as §1, §2

[19] = target: T3, FcgRIIb; test: as above; remark: listed apart in the source
Experimental: as §1, §2

[20] = target: T6, FcgRIa; test: as above; remark: listed apart in the source
Experimental: as §1, §2

[21] = target: T4, FcgRIIaR; test: as above; remark: listed apart in the source
Experimental: as §1, §2

[22] = target: T5, FcgRIIIaV; test: as above; remark: listed apart in the source
Experimental: as §1, §2

- Relative KD [1]: 1
- Relative KD [2]: 1
- Relative KD [3]: 1
- Relative KD [4]: 1
- Relative KD [5]: 1
- Relative KD [6]: 1
- Relative KD [7]: 1
- Relative KD [8]: 1
- Relative KD [9]: 1
- Relative KD [10]: 1
- Kd [11]: 41 nM
- Kd [12]: 2.2 nM
- Kd [13]: 150 nM
- Kd [14]: 0.16 nM
- Kd [15]: 20 nM
- Kd [16]: 0.36 nM
- Kd [17]: 41 nM
- Kd [18]: 2.2 nM
- Kd [19]: 150 nM
- Kd [20]: 0.16 nM
- Kd [21]: 20 nM
- Kd [22]: 0.36 nM
B1: H240-Kn120/H240-Hl068/L73-k0 (antibody, human IgG1, kappa)
heavy 1: QDQLVQSGAEVKKPGASVKVSCKASGFNIKDTYIQWVRQAPGQGLEWMGRIDPLRKQTKYREKFEGRVTITADTSTNTAYMELSSLRSEDTAVYYCVRSGREFDYWGQGTLVTVSSASTKGPSVFPLAPSSKSTSGGTAALGCLVKDYFPEPVTVSWNSGALTSGVHTFPAVLQSSGLYSLSSVVTVPSSSLGTQTYICNVNHKPSNTKVDKKVEPKSCDKTHTCPPCPAPEYYWGPMVFLFPPKPKDTLMISRTPEVTCVVVDVSDEDPEVKFNWYVDGVEVHNAKTKPREEQYNATYRVVSVLTVLHQDWLNGKEYKCKVSNKDLPAPIEKTISKAKGQPREPQVCTLPPSRDELTKNQVSLWCLVKGFYPSDIAVEWESNGQPENNYKTTPPVLDSDGSFFLYSKLTVDKSRWQQGNVFSCSVMHEALHNHYTQKSLSLSP
heavy 2: QDQLVQSGAEVKKPGASVKVSCKASGFNIKDTYIQWVRQAPGQGLEWMGRIDPLRKQTKYREKFEGRVTITADTSTNTAYMELSSLRSEDTAVYYCVRSGREFDYWGQGTLVTVSSASTKGPSVFPLAPSSKSTSGGTAALGCLVKDYFPEPVTVSWNSGALTSGVHTFPAVLQSSGLYSLSSVVTVPSSSLGTQTYICNVNHKPSNTKVDKKVEPKSCDKTHTCPPCPAPELLGGPSVFLFPPKPKDTLMISRTPEVTCVVVDVSHEEPEVKFNWYVDGVEVHNAKTKPREEQYNSTYRVVSVLTVLHQDWLNGKEYKCKVSNDALPKPIEETISKAKGQPREPQVYTLPPSRCELTKNQVSLSCAVKGFYPSDIAVEWESNGQPENNYKTTPPVLDSDGSFFLVSKLTVDKSRWQQGNVFSCSVMHEALHNHYTQKSLSLSP
light: DIQMTQSPSSLSASVGDRVTITCRASQDIHKYIAWYQQKPGQAPRLLIQYTSTLQPGVPSRFSGSGSGTDYTFTISSLQPEDIATYYCLQYEQLRTFGGGTKVEIKRTVAAPSVFIFPPSDEQLKSGTASVVCLLNNFYPREAKVQWKVDNALQSGNSQESVTEQDSKDSTYSLSSTLTLSKADYEKHKVYACEVTHQGLSSPVTKSFNRGEC
notes: Heterodimerized anti-epiregulin IgG1-type antibody (knobs-into-holes); also called H240-Kn120/H240-HI068/L73-k0

- Relative KD [1]: 1
- Relative KD [2]: 0.2
- Relative KD [3]: 0.8
- Relative KD [4]: 1.4
- Relative KD [5]: 0.1
- Relative KD [6]: 1
- Relative KD [7]: 0.2
- Relative KD [8]: 0.8
- Relative KD [9]: 1.4
- Relative KD [10]: 0.1
- Kd [11]: 41 nM
- Kd [12]: 12 nM
- Kd [13]: 190 nM
- Kd [14]: 0.18 nM
- Kd [15]: 14 nM
- Kd [16]: 5.4 nM
- Kd [17]: 41 nM
- Kd [18]: 12 nM
- Kd [19]: 190 nM
- Kd [20]: 0.18 nM
- Kd [21]: 14 nM
- Kd [22]: 5.4 nM
B2: H240-Kn120/H240-Hl089/L73-k0 (antibody, human IgG1, kappa)
heavy 1: B1 heavy 1
heavy 2: B1 heavy 2 with G235T
light: B1 light
notes: Heterodimerized anti-epiregulin antibody; G236T in the Hl068 chain; also called H240-Kn120/H240-HI089/L73-k0
